The source of these data is paper PMC3581573 (PLoS ONE, 2013).

Series [1] deals with the molecule itself. Description: crystal structure; XlPRMT5-MEP50 co-crystallised with 1 mM SAH; 30%–40% MPD, 100 mM Bis-Tris pH 5.5, 18°C; 3.0 Å.
Series [2] concerns the target T1, Recombinant Flag-tagged human PRMT5 (human, UniProt O14744 1-637).
T1 construct: Protein arginine methyltransferase 5 (PRMT5), human; also called Flag-HsPRMT5; HsPRMT5; source: bought: SinoBiologicals (expressed in 293 cells)
Description: pull-down; XlMEP50 and Flag-HsPRMT5 (both 50 nM) on anti-Flag M2 agarose in TBS, 4°C, 2 hours; eluate immunoblotted for PRMT5 and MEP50; control: MEP50 without PRMT5. To be noted: both partners purified. For orientation: A western blot detects proteins with antibodies after separation by electrophoresis.

T1 sequence (O14744 whole entry): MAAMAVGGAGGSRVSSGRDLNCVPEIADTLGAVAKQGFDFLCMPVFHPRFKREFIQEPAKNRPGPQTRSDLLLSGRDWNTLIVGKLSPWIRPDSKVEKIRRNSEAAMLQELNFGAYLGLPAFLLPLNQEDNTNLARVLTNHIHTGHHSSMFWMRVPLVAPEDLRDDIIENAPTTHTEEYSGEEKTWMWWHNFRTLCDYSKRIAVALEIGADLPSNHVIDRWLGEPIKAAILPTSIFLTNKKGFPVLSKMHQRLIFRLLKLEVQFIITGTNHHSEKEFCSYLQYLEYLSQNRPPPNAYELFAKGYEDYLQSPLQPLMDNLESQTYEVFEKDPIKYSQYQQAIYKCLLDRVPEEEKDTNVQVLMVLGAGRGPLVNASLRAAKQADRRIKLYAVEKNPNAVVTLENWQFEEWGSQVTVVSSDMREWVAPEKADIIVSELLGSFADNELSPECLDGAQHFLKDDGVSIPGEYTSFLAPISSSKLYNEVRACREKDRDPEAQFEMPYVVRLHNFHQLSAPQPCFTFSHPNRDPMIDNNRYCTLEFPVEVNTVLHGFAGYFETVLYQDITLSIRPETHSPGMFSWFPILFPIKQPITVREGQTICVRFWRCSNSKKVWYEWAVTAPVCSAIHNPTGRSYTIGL

B1: Xenopus laevis PRMT5 (enzyme, UniProt Q6NUA1 1-633, looked up)
chain: MAAGDGGRVSSGRDVACVTEVADTLGAMANQGFDFLCMPIFHPRFKREFYKEPAKSRPGPQTRSDLLLSGRDWNTLIVGKLSDWIKTDSEVSRIRKTSEAAMQQELNFSAYLGLPAFLIPLKQEDNSNLSRLLINHIHVGHHSTMFWMRVPLMAPNDLRDDLIENEPISLSEEDNSGEERTWIWWHNFRSLCDYNKKIALAIEIGADLPSGHVIDRWLGEPIKAAFLPTSIFLTNKKGFPVLTKVHQRLIFKLFKLEVQFVISGSHHHSEKDLCSYLQYLEYLSQNSPPPNAYEMFAKGYEDYLQSPLQPLMDNLESQTYEVFEKDPVKYSQYQQAVYKCLLDRVPEEEKETNIQILMVLGAGRGPLVNASLRAAKQAERKIKVYAVEKNPNAVITLEGWRYEEWGSQVTVVSGDMREWKAPEKADIIVSELLGSFGDNELSPECLDGAQHFLKDDGVSIPGEYTSYLAPISSSKLYNEVRACREKDRDPEAQFEMPYVVRLHNFHQLSDPLPCFTFHHPNKDDVIDNNRYCCLQYRVDLNTVLHGFAGYFNTVLYKDVTLSICPESHSPGMFSWFPILFPIKQPIPMREGDTVCVRFWRCNNGKKVWYEWAVTSPVCSAIHNPTGRSYTIGL
notes: Protein arginine methyltransferase 5 (PRMT5), Xenopus laevis, full-length, as the PRMT5 chain of the crystallised XlPRMT5-MEP50 complex; The complex was purified on Ni-NTA, so one or both chains probably carry a His tag; A selenomethionine form was used for phasing; also called XlPRMT5; source: Hi5 cells, baculovirus, co-expressed with MEP50, purified (Ni-NTA, Superdex 200)
Broadly, the stoichiometry N is a count of units in the complex or per binding partner. Consider B1, for which the “stoichiometry N” value in series [1] was 4.

B2: Recombinant Xenopus laevis MEP50 alone (natural protein, UniProt Q6NUD0 1-333, looked up)
chain: MSKGSAWGRPVTAPACMEVQIGAVRYRRDGALLLAASSLSSRTWGGSIWVFKDPEGAPNESLCTAGVQTEAGVTDVAWVSEKGILVASDSGAVELWEILEKESLLVNKFAKYEHDDIVKTLSVFSDGTQAVSGGKDFSVKVWDLSQKAVLKSYNAHSSEVNCVAACPGKDTIFLSCGEDGRILLWDTRKPKPATRIDFCASDTIPTSVTWHPEKDDTFACGDETGNVSLVNIKNPDSAQTSAVHSQNITGLAYSYHSSPFLASISEDCTVAVLDADFSEVFRDLSHRDFVTGVAWSPLDHSKFTTVGWDHKVLHHHLPSEGRTENLIATKAED
notes: MEP50, Xenopus laevis; recombinant protein used without PRMT5; also called XlMEP50; Xenopus MEP50
For B2, the binding result in series [2] is on record as “binds”.
